Source: patent US11175289B2, “Application of TRPM8 protein, related peptide fragment and their antibodies” (priority 2016, dated 2021)
Entries after “also recorded” stand apart in the source; their conditions may differ.

How the values were obtained:
[1] = system: T lymphocyte in prostate of the modeling animal; test: CD3 immunofluorescence staining of prostate tissue; format: in vivo, rat; conditions: SD rats immunized with antigen combined with CFA
Text: (§1) Experiment is designed and performed as follows. Firstly, pure TRPM8 protein is combined with Complete Freund's adjuvant (CFA) to establish an animal model of CP/CPPS. The animal model is compared with a prostatein homogenate modeling method. Meanwhile, TRPM8 in prostatein homogenate is removed by immunomagnetic beads; wherein the prostatein homogenate is molded for serving as a negative control. HE staining method is utilized to evaluate the severity of inflammation in prostate tissue of each modeling group of animal, and the severity of inflammation in prostate tissue is performed with pathological score. CD3 immunofluorescence method is adopted to observe infiltrating of T lymphocyte in prostate of the modeling animal.
In addition, the prostate tissue sections of each group of animals to be tested are taken, baked in an oven for 30 minutes at 60° C., then subjected to CD3 immunofluorescence, and finally added with anti-fluorescence quenching agent for sealing, observed under a microscope, wherein photos are taken.
In order to improve the inflammatory cell containing a plurality of T-lymphocytes, the CD3 molecules are performed with immunofluorescence staining. The results are shown in FIG. 3: A: control blank group; B: protein homogenate group; C: pure TRPM8 protein group; D: TRPM8 protein free homogenate group.

[2] = system: prostate tissue of SD rats; test: CP/CPPS animal model by immunization with antigen plus CFA; HE staining and pathological score of prostate; format: in vivo, rat
Text: as §1
Take 40 8-week-old SPF level male SD rats, with weights at a range of 250±20 g. The rats are purchased from Shanghai Sijie laboratory Co., Ltd with a license number of SCXK (Shanghai) 2012-0006. Under an aseptic condition, prostate of an SD rats is taken to prepare prostatein homogenate and TRPM8 removed homogenate protein. Grouping of immune animals in experiments is as follows. 40 8-week-old SD rats are randomly classified into 4 groups, i.e., a homogenate protein group, a TRPM8 removed homogenate protein group, a pure TRPM8 protein group and a control group; wherein each group comprises 10 rats. After 8 weeks of immune, each group of the rats are injected with 10% chloral hydrate on abdomen for anesthesia, and plasma and prostate of each group of rats are respectively collected. Preparation of prostate pathological section: the paraffin embedded prostate sections of the rats in each experimental group are sent to a drying oven, heated under 60° C. for 30 min. […]
According to HE staining result, prostatitis degree of each group of rats are pathologically scored under standards as follows. […]
Each prostate section is scored by three associate professors in pathology according to the standards mentioned above under a randomized and double-blind principle, and an average value calculated is a histological score indicating degree of the prostatitis of the animal. […]

B1: TRPM8 protein: TRPM8 protein purchased from ProteinTech Group; combined with CFA to immunize SD rats (protein)
chain: MSFRAARLSMRNRRNDTLDSTRTLYSSASRSTDLSYSESDLVNFIQANFKKRECVFFTKDSKATENVCKCGYAQSQHMEGTQINQSEKWNYKKHTKEFPTDAFGDIQFETLGKKGKYIRLSCDTDAEILYELLTQHWHLKTPNLVISVTGGAKNFALKPRMRKIFSRLIYIAQSKGAWILTGGTHYGLMKYIGEVVRDNTISRSSEENIVAIGIAAWGMVSNRDTLIRNCDAEGYFLAQYLMDDFTRDPLYILDNNHTHLLLVDNGCHGHPTVEAKLRNQLEKYISERTIQDSNYGGKIPIVCFAQGGGKETLKAINTSIKNKIPCVVVEGSGQIADVIASLVEVEDALTSSAVKEKLVRFLPRTVSRLPEEETESWIKWLKEILECSHLLTVIKMEEAGDEIVSNAISYALYKAFSTSEQDKDNWNGQLKLLLEWNQLDLANDEIFTNDRRWESADLQEVMFTALIKDRPKFVRLFLENGLNLRKFLTHDVLTELFSNHFSTLVYRNLQIAKNSYNDALLTFVWKLVANFRRGFRKEDRNGRDEMDIELHDVSPITRHPLQALFIWAILQNKKELSKVIWEQTRGCTLAALGASKLLKTLAKVKNDINAAGESEELANEYETRAVELFTECYSSDEDLAEQLLVYSCEAWGGSNCLELAVEATDQHFIAQPGVQNFLSKQWYGEISRDTKNWKIILCLFIIPLVGCGFVSFRKKPVDKHKKLLWYYVAFFTSPFVVFSWNVVFYIAFLLLFAYVLLMDFHSVPHPPELVLYSLVFVLFCDEVRQWYVNGVNYFTDLWNVMDTLGLFYFIAGIVFRLHSSNKSSLYSGRVIFCLDYIIFTLRLIHIFTVSRNLGPKIIMLQRMLIDVFFFLFLFAVWMVAFGVARQGILRQNEQRWRWIFRSVIYEPYLAMFGQVPSDVDGTTYDFAHCTFTGNESKPLCVELDEHNLPRFPEWITIPLVCIYMLSTNILLVNLLVAMFGYTVGTVQENNDQVWKFQRYFLVQEYCSRLNIPFPFIVFAYFYMVVKKCFKCCCKEKNMESSVCCFKNEDNETLAWEGVMKENYLVKINTKANDTSEEMRHRFRQLDTKLNDLKGLLKEIANKIK
**Q.** Which “CD3 immunofluorescence staining of prostate stromal” value [1] does the source give for B1 here?
**A.** A large area of CD3 molecule marked by red luminescence

**Q.** What about the “pathogenicity causing CP/CPPS” value ([2]; SD rats immunized with antigen) of the same molecule?
**A.** successfully induces generation of CP/CPPS; also recorded: strong pathogenicity causing CP/CPPS

**Q.** And the “inflammatory cell infiltration in prostate (HE staining)” value ([2]; SD rats immunized with antigen combined with CFA, 8 weeks)?
**A.** a plurality of inflammatory cell infiltration

**Q.** And the “histological score (pathological evaluation of prostatitis degree)” value ([2]; SD rats immunized with antigen combined with CFA, 8 weeks, score 0-3, M±SD)?
**A.** 2.7000±0.4830
